Results on two molecules are retold here after patent US20190284293A1 (Bristol-Myers Squibb, published 2019).

Several values for one entry are separate records, joined by “and”; a condition that tells them apart may be missing. Identical values can stand only once.

In general, Kd refers to a measure of binding affinity in units of concentration. As a reminder, the EC50 is the concentration at which the effect is half-maximal. The low end stands for higher potency in that assay, the high end for lower potency in that assay. Usually IC50 stands for the concentration that gives 50% inhibition. A lower IC50 goes with greater potency.

Test [1] addresses T1, rhCD73 bound to his-tag magnet beads (human, UniProt P21589 27-547, limits assumed).
T1 sequence: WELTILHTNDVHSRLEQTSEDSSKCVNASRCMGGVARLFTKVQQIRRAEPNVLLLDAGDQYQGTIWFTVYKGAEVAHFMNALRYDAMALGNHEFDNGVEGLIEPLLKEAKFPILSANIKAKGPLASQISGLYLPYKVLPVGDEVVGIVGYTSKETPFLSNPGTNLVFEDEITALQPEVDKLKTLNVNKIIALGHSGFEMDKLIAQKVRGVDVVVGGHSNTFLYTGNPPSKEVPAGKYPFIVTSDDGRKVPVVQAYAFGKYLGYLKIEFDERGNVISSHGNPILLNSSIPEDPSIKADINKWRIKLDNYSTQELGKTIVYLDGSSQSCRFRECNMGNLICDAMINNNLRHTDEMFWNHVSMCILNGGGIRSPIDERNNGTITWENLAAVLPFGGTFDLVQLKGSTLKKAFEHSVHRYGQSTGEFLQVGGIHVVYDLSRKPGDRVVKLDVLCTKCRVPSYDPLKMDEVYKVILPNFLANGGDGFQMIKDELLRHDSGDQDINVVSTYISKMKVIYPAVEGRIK
Nature of the test: cell-based or functional assay.

Test [2] concerns the target T2, human CD73 on cells (human, UniProt P21589 27-549).
T2 sequence: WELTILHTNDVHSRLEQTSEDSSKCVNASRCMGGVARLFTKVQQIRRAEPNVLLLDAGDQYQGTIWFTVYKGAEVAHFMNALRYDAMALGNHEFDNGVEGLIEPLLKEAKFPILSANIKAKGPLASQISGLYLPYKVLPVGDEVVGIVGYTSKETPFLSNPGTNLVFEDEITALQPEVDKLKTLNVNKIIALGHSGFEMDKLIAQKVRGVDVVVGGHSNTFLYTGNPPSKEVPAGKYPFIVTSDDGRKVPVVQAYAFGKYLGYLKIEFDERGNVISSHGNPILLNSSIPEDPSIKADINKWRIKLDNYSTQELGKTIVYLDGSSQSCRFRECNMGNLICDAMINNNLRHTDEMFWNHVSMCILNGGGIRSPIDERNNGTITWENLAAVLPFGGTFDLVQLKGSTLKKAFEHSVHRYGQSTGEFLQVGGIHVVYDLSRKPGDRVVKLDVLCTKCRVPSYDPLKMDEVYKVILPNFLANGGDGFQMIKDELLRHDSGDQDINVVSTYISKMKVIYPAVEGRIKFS
Nature of the test: cell-based or functional assay.

Test [3] concerns the target T2, human CD73 on cells. Nature of the test: cell-based or functional assay. This is another data set of the same source.
Test [4] concerns the target T2, human CD73 on cells. Nature of the test: cell-based or functional assay. This is another data set of the same source.
Test [5] concerns the target T3, N-hCD73-his (N-terminal domain of human CD73, residues 26-336, His tag) (human, UniProt P21589 26-336).
T3 sequence: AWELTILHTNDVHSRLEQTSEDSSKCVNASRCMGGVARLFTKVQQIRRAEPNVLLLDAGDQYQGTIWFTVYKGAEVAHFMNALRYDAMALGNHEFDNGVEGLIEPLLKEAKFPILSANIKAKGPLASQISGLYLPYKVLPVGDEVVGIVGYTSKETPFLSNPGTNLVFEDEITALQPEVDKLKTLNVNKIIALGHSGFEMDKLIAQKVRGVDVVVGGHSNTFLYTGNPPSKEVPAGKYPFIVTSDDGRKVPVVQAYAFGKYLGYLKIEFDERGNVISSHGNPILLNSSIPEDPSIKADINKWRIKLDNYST
Nature of the test: SPR, mAb captured on protein A. On the procedure:
(§1) For these experiments, protein A (Pierce) was immobilized to a density of 3000-4000 RU on flow cells 1-4 of a CM5 sensor chip (GE Healthcare) using standard ethyl(dimethylaminopropyl) carbodiimide (EDC)/N-hydroxysuccinimide […] chemistry, with ethanolamine blocking, in a running buffer of 0.01 M HEPES pH 7.4, 0.15 M NaCl, 3 mM EDTA, 0.005% v/v tween 20. […] The running buffer for the kinetic experiments was 10 mM sodium phosphate, 130 mM sodium chloride, 0.05% tween 20, pH 7.1. The surfaces were regenerated after each cycle using two 30 s pulses of 10 mM glycine pH 1.5 at a flow rate of 30 μl/min. Sensogram data was double-referenced and then fitted to a 1:1 Langmuir model using Biacore T100 evaluation software v2.0.4, to determine the association rate constant (ka), the dissociation rate constant (kd), and the equilibrium dissociation constant (KD).

Test [6] concerns the target T3, N-hCD73-his (N-terminal domain of human …). Nature of the test: SPR, comparison of all IgG2 molecules. On the procedure: as §1
Background: In SPR one partner is held on a chip, and binding of the other changes the refractive index at the surface.

The target in test [7] is T4, cynomolgus CD73 on transfected CHO cells (cynomolgus, UniProt P21589 27-549 (human entry)).
T4 construct: also called CHO-cynoCD73; CHO-Cynomolgus CD73 transfectants
T4 chain: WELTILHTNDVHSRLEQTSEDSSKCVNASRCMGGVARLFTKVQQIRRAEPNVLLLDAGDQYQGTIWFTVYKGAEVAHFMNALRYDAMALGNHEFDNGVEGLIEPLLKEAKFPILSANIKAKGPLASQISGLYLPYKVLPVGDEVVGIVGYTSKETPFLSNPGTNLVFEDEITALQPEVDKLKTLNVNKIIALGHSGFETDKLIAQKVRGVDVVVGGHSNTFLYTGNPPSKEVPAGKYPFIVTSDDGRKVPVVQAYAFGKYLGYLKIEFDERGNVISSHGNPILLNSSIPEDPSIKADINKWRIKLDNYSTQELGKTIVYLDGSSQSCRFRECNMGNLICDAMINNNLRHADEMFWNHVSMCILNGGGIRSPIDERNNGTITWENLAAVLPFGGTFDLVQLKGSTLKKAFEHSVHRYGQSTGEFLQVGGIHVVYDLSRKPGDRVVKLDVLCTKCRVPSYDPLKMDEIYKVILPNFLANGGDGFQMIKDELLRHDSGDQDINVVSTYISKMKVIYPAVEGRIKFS
Nature of the test: flow cytometry, CHO-cynoCD73 cells. The method, then:
(§2) Titration binding curves were produced with CD73 antibodies on Calu6 (CD73 endogenous expressors; human pulmonary adenocarcinoma cell line), DMS114 (CD73 negative; human small cell lung cancer cell line), CHO-cynoCD73 (cynoCD73-transfected) and CHO-K1 (cynoCD73 negative), cells using Alexa Fluor® 647 Goat Anti-Human IgG (H+L) as a secondary antibody, Invitrogen Cat#A-21445, using the following method: 100000 cells were plated in 100 uL PBS+2% FBS per well and blocked for 20 min. Using a U-bottom 96-deep well plate, volumes of antibody and PBS+2% FBS were combined as dictated by Table 12 below.
(§3) An 8-point serial dilution was performed by diluting a sixth of the volume (90 uL) into […], PBS+2% FBS. The cell plate was spun down for 5 minutes at 1500 rpm. 100 uL of diluted antibody was added per well of the plate. 100 uL PBS+2% FBS were added to all other wells. […] The plates were spun down at 1500 rpm for 5 min and washed in 200 uL PBS+2% FBS per well. The plates were washed again, resuspended in 200 uL 2% FBS in PBS per well and the samples were run.

In test [8] the target is T5, cyno CD73, Sino Biological Inc Cat#90192-C08H, bound to his-tag magnet beads (cynomolgus, UniProt P21589 27-547 (human entry)).
T5 chain: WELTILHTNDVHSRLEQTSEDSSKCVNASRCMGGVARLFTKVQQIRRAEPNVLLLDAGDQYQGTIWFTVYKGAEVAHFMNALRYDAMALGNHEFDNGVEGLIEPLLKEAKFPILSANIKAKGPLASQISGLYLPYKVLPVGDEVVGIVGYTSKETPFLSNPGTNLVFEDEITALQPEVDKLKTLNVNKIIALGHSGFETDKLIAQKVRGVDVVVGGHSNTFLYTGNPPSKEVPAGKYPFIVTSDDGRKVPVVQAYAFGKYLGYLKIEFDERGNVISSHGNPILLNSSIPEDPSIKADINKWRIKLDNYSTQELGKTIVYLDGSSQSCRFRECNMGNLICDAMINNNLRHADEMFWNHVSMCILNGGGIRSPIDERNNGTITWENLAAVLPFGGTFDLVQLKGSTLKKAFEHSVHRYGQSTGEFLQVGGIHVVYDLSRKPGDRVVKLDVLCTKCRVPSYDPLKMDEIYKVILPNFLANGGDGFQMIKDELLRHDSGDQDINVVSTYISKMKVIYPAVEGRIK
Nature of the test: cell-based or functional assay.

In test [9] the target is T2, human CD73 on cells. Nature of the test: cell-based or functional assay. This is another data set of the same source.
Test [10] deals with T2, human CD73 on cells. Nature of the test: flow cytometry, Calu6 cells. The method, then: as §2, §3
On the technique in general: A flow cytometer gives signals particle by particle.

Test [11] addresses T2, human CD73 on cells. Nature of the test: flow cytometry, FITC-mAb, human B cells, donor D316. The method, then:
(§4) Binding of CD73.4 antibody to human B and T cells was also determined. Peripheral blood mononuclear cells (PBMC) were isolated with Lympholyte-H cell separation gradient media. […] Cells from both donors were pooled for the unstained and FMO (Fluorescence minus one) control samples.

Test [12] addresses T2, human CD73 on cells. Nature of the test: flow cytometry, FITC-mAb, human B cells, donor D329. The method, then: as §4
Test [13] has as its target T2, human CD73 on cells. Nature of the test: flow cytometry, FITC-mAb, human T cells, donor D316. The method, then: as §4
The target in test [14] is T2, human CD73 on cells. Nature of the test: flow cytometry, FITC-mAb, human T cells, donor D329. On the procedure:
as §4

For test [15], the target named is T2, human CD73 on cells. Nature of the test: binding titration on Calu6 cells, average of 2-6 experiments.

B1: 11F11 (antibody, human IgG2, kappa, V domains shown)
VH: QVQLVESGGGVVQPGRSLRLSCATSGFTFSNYGMHWVRQAPGKGLEWVAVILYDGSNKYYPDSVKGRFTISRDNSKNTLYLQMNSLRAEDTAVYYCARGGSSWYPDSFDIWGQGTMVTVSS
VL: DIQMTQSPSSLSASVGDRVTITCRASQGISSWLAWYQQKPEKAPKSLIYAASSLQSGVPSRFSGSGSGTDFTLTISSLQPEDFATYYCQQYNSYPLTFGGGTKVEIKR
notes: Human IgG2; also called 11F11-2
Take B1: the “EC50 (nM), inhibition of bead-bound human CD73 enzymatic activity” value in [1] was 3.98 nM. In addition, the “EC50 SKMEL24 inhibition” value in the test with human CD73 on cells [2] is 3150 pM. Besides, in the test with human CD73 on cells [3], the “Ymax, cAMP HTRF assay (percent of 100 nM 11F11 control)” value turned out to be 76%. Besides, in the test with human CD73 on cells [4], the “EC50 (nM), high-content internalization assay, Calu6, 2 h” value worked out at 0.58 nM and the “Ymax, high-content internalization assay (percent of 100 nM 11F11)” value came to 98%. Further, the Kd in test [5] was 560 pM and 1600 pM. The Kd in test [6] is 1100 pM. The response in test [7] was half-maximal at 580 pM (EC50).

B2: CD73.4-IgG2-C219S (antibody)
heavy: QVQLVESGGGVVQPGRSLRLSCAASGFTFSNYGMHWVRQAPGKGLEWVAVILYDGSNKYYPDSVKGRFTISRDNSKNTLYLQMNSLRAEDTAVYYCARGGSSWYPDSFDIWGQGTMVTVSSASTKGPSVFPLAPCSRSTSESTAALGCLVKDYFPEPVTVSWNSGALTSGVHTFPAVLQSSGLYSLSSVVTVPSSNFGTQTYTCNVDHKPSNTKVDKTVERKSCVECPPCPAPPVAGPSVFLFPPKPKDTLMISRTPEVTCVVVDVSHEDPEVQFNWYVDGVEVHNAKTKPREEQFNSTFRVVSVLTVVHQDWLNGKEYKCKVSNKGLPAPIEKTISKTKGQPREPQVYTLPPSREEMTKNQVSLTCLVKGFYPSDIAVEWESNGQPENNYKTTPPMLDSDGSFFLYSKLTVDKSRWQQGNVFSCSVMHEALHNHYTQKSLSLSPG
light: not shown
notes: also called CD73.4-IgG2CS; CD73.4-IgG2.3
Regarding B2, in test [1], the “EC50 (nM), inhibition of bead-bound human CD73 enzymatic activity” value amounted to 2.72 nM. The “EC50 (nM), enzymatic inhibition of cyno CD73 (bead-bound)” value in test [8] was 3.66 nM. Also, the “EC50 Calu6 inhibition” value in the test with human CD73 on cells [2] was 340 pM. Besides, in the test with human CD73 on cells [9], the “CD73 Inhibition EC50 (nM), cAMP assay, Calu6” value is 1.56 nM and 1.78 nM. In addition, the EC50 in the test with human CD73 on cells [10] turned out to be 490 pM; in [7], 340 pM; with human CD73 on cells [15], 490 pM. For the same molecule, the IC50 with human CD73 on cells [11] was found to be 159 pM; in the test with human CD73 on cells [12], 77.7 pM; with human CD73 on cells [13] it was 180 pM; with human CD73 on cells [14], 135 pM.
